Our source for the abundance fitness values is the Human Domainome abundance scans (Beltran et al. 2025).

B1: Intersectin-1, residues 909 to 971; numbered along this chain, Q15811 (parent)
chain: QGEKVEGLQAQALYPWRAKKDNHLNFNKNDVITVLEQQDMWWFGEVQGQKGWFPKSYVKLISG

± gives the uncertainty stated by the source.

The series covers variants of B1. Description: abundance fitness (aPCA) (normalised: wild type 0, dead -1); higher = more abundant; growth selection in yeast, the domain comes from the species named. To be noted: Homo sapiens.
As for QGEKVEGLQAQANYPWRAKKDNHLNFNKNDVITVLEQQDMWWFGEVQGQKGWFPKSYVKLISG [L13N], the abundance fitness was -0.024 ± 0.42.
Consider QGEKVEGLQAQAMYPWRAKKDNHLNFNKNDVITVLEQQDMWWFGEVQGQKGWFPKSYVKLISG [L13M], for which the abundance fitness is -0.204 ± 0.29.
The same measure for QGEKVEGLQAQAVYPWRAKKDNHLNFNKNDVITVLEQQDMWWFGEVQGQKGWFPKSYVKLISG [L13V]: 0.091 ± 0.12.
As to QGEKVEGLQAQACYPWRAKKDNHLNFNKNDVITVLEQQDMWWFGEVQGQKGWFPKSYVKLISG [L13C], the abundance fitness is -0.268 ± 0.28.
The same measure for QGEKVEGLQAQADYPWRAKKDNHLNFNKNDVITVLEQQDMWWFGEVQGQKGWFPKSYVKLISG [L13D]: -0.158 ± 0.29; for QGEKVEGLQAQATYPWRAKKDNHLNFNKNDVITVLEQQDMWWFGEVQGQKGWFPKSYVKLISG [L13T]: -0.233 ± 0.18.
As for QGEKVEGLQAQASYPWRAKKDNHLNFNKNDVITVLEQQDMWWFGEVQGQKGWFPKSYVKLISG [L13S], the abundance fitness was -0.412 ± 0.2.
With QGEKVEGLQAQAQYPWRAKKDNHLNFNKNDVITVLEQQDMWWFGEVQGQKGWFPKSYVKLISG [L13Q], the abundance fitness was -0.2 ± 0.28.
For the variant QGEKVEGLQAQARYPWRAKKDNHLNFNKNDVITVLEQQDMWWFGEVQGQKGWFPKSYVKLISG [L13R], the abundance fitness is -0.126 ± 0.11.
QGEKVEGLQAQAEYPWRAKKDNHLNFNKNDVITVLEQQDMWWFGEVQGQKGWFPKSYVKLISG [L13E]: the abundance fitness was -0.267 ± 0.26.
For QGEKVEGLQAQAGYPWRAKKDNHLNFNKNDVITVLEQQDMWWFGEVQGQKGWFPKSYVKLISG [L13G], the abundance fitness was -0.709 ± 0.13.
Consider QGEKVEGLQAQAAYPWRAKKDNHLNFNKNDVITVLEQQDMWWFGEVQGQKGWFPKSYVKLISG [L13A], for which the abundance fitness is -0.271 ± 0.22.
For QGEKVEGLQAQAIYPWRAKKDNHLNFNKNDVITVLEQQDMWWFGEVQGQKGWFPKSYVKLISG [L13I] the value was -0.393 ± 0.46; for QGEKVEGLQAQALIPWRAKKDNHLNFNKNDVITVLEQQDMWWFGEVQGQKGWFPKSYVKLISG [Y14I], -0.058 ± 0.16; for QGEKVEGLQAQALHPWRAKKDNHLNFNKNDVITVLEQQDMWWFGEVQGQKGWFPKSYVKLISG [Y14H], -0.103 ± 0.23.
As for QGEKVEGLQAQALQPWRAKKDNHLNFNKNDVITVLEQQDMWWFGEVQGQKGWFPKSYVKLISG [Y14Q], the abundance fitness was -0.129 ± 0.21.
QGEKVEGLQAQALSPWRAKKDNHLNFNKNDVITVLEQQDMWWFGEVQGQKGWFPKSYVKLISG [Y14S]: the abundance fitness was -0.233 ± 0.11.
Take QGEKVEGLQAQALKPWRAKKDNHLNFNKNDVITVLEQQDMWWFGEVQGQKGWFPKSYVKLISG [Y14K]: the abundance fitness is -0.098 ± 0.15.
For QGEKVEGLQAQALTPWRAKKDNHLNFNKNDVITVLEQQDMWWFGEVQGQKGWFPKSYVKLISG [Y14T], the abundance fitness is -0.191 ± 0.14.
Take QGEKVEGLQAQALAPWRAKKDNHLNFNKNDVITVLEQQDMWWFGEVQGQKGWFPKSYVKLISG [Y14A]: the abundance fitness was -0.09 ± 0.092.
In the case of QGEKVEGLQAQALRPWRAKKDNHLNFNKNDVITVLEQQDMWWFGEVQGQKGWFPKSYVKLISG [Y14R], the abundance fitness was -0.052 ± 0.084.
QGEKVEGLQAQALCPWRAKKDNHLNFNKNDVITVLEQQDMWWFGEVQGQKGWFPKSYVKLISG [Y14C]: the abundance fitness was -0.511 ± 0.14.
The same measure for QGEKVEGLQAQALEPWRAKKDNHLNFNKNDVITVLEQQDMWWFGEVQGQKGWFPKSYVKLISG [Y14E]: 0.023 ± 0.12; for QGEKVEGLQAQALPPWRAKKDNHLNFNKNDVITVLEQQDMWWFGEVQGQKGWFPKSYVKLISG [Y14P]: -0.585 ± 0.44.
As to QGEKVEGLQAQALLPWRAKKDNHLNFNKNDVITVLEQQDMWWFGEVQGQKGWFPKSYVKLISG [Y14L], the abundance fitness stood at 0.009 ± 0.097.
Turning to QGEKVEGLQAQALDPWRAKKDNHLNFNKNDVITVLEQQDMWWFGEVQGQKGWFPKSYVKLISG [Y14D], the abundance fitness was -0.104 ± 0.17.
On to QGEKVEGLQAQALGPWRAKKDNHLNFNKNDVITVLEQQDMWWFGEVQGQKGWFPKSYVKLISG [Y14G], for which the abundance fitness is -0.159 ± 0.072.
For the variant QGEKVEGLQAQALFPWRAKKDNHLNFNKNDVITVLEQQDMWWFGEVQGQKGWFPKSYVKLISG [Y14F], the abundance fitness is -0.725 ± 0.44.
Take QGEKVEGLQAQALVPWRAKKDNHLNFNKNDVITVLEQQDMWWFGEVQGQKGWFPKSYVKLISG [Y14V]: the abundance fitness amounted to 0.011 ± 0.086.
Turning to QGEKVEGLQADALYPWRAKKDNHLNFNKNDVITVLEQQDMWWFGEVQGQKGWFPKSYVKLISG [Q11D], the abundance fitness was -0.728 ± 0.47.
For QGEKVEGLQAVALYPWRAKKDNHLNFNKNDVITVLEQQDMWWFGEVQGQKGWFPKSYVKLISG [Q11V] the value was -0.364 ± 0.16; for QGEKVEGLQALALYPWRAKKDNHLNFNKNDVITVLEQQDMWWFGEVQGQKGWFPKSYVKLISG [Q11L], -0.247 ± 0.098.
As for QGEKVEGLQASALYPWRAKKDNHLNFNKNDVITVLEQQDMWWFGEVQGQKGWFPKSYVKLISG [Q11S], the abundance fitness was -0.066 ± 0.086.
The same measure for QGEKVEGLQAHALYPWRAKKDNHLNFNKNDVITVLEQQDMWWFGEVQGQKGWFPKSYVKLISG [Q11H]: -0.131 ± 0.29; for QGEKVEGLQACALYPWRAKKDNHLNFNKNDVITVLEQQDMWWFGEVQGQKGWFPKSYVKLISG [Q11C]: -0.459 ± 0.21.
As to QGEKVEGLQAMALYPWRAKKDNHLNFNKNDVITVLEQQDMWWFGEVQGQKGWFPKSYVKLISG [Q11M], the abundance fitness was -0.119 ± 0.14.
Turning to QGEKVEGLQAWALYPWRAKKDNHLNFNKNDVITVLEQQDMWWFGEVQGQKGWFPKSYVKLISG [Q11W], the abundance fitness is -0.098 ± 0.14.
With QGEKVEGLQAYALYPWRAKKDNHLNFNKNDVITVLEQQDMWWFGEVQGQKGWFPKSYVKLISG [Q11Y], the abundance fitness was -0.09 ± 0.26.
As to QGEKVEGLQARALYPWRAKKDNHLNFNKNDVITVLEQQDMWWFGEVQGQKGWFPKSYVKLISG [Q11R], the abundance fitness was -0.067 ± 0.075.
On to QGEKVEGLQAAALYPWRAKKDNHLNFNKNDVITVLEQQDMWWFGEVQGQKGWFPKSYVKLISG [Q11A], for which the abundance fitness is -0.239 ± 0.094.
QGEKVEGLQAPALYPWRAKKDNHLNFNKNDVITVLEQQDMWWFGEVQGQKGWFPKSYVKLISG [Q11P]: the abundance fitness was -1.03 ± 0.42.
For QGEKVEGLQATALYPWRAKKDNHLNFNKNDVITVLEQQDMWWFGEVQGQKGWFPKSYVKLISG [Q11T], the abundance fitness was -0.098 ± 0.13.
